Source: the supplement of paper PMC7877785
± gives the uncertainty stated by the source.

Assay: self-splicing fitness, log relative to wild type (ln ratio); higher = more splicing; Tetrahymena group I intron in knt gene, E. coli kanamycin selection, DiMSum; sequences stand for … in CUCUCU…GGAGGGAAAAGUUAUCAGGCAUGCACCUGGUAGCUAGUCUUUAAACCAAUAGAUUGCAUCGGUUUAAAAGGCAAGACCGUCAAAUUGCGGGAAAGGGGUCAACAGCCGUUCAGUACCAAGUCUCAGGGGAAACUUUGAGAUGGCCUUGCAAAGGGUAUGGUAAUAAGCUGACGGACAUGGUCCUAACCACGCAGCCAAGUCCUAAGUCAACAGAUCUUCUGUUGAUAUGGAUGCAGUUCACAGACUAAAUGUCGGUCGGGGAAGAUGUAUUCUUCUCAUAAGAUAUAGUCGGACCUCUCCUUAAUGGGAGCUAGCGGAUGAAGUGAUGCAACACUGGAGCCGCUGGGAACUAAUUUGUAUGCGAAAGUAUAUUGAUUAGUUUUGGAGUACUCGUGGUCG
How it was run: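 A randomised library covering all eight P1ex-region intron nucleotides was built with the intron in the knt kanamycin-resistance gene on pET-22b(+) and held in E. coli BL21(DE3). Cells were grown overnight at 37°C or 30°C on LB agar, with or without 25 μg/mL kanamycin, plus 100 μg/mL carbenicillin, 50 μM IPTG and 0.2% rhamnose, and pooled colonies were amplicon-sequenced on an Illumina HiSeq 2500. DiMSum fitness is the error-weighted combination of wild-type-normalised replicate fold changes, kanamycin versus none.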

Sequence | self-splicing fitness (ln) (30 °C) | self-splicing fitness (ln) (37 °C)
GUAGAGCAAUAUUACGUGUG | -0.928 ± 0.073 | -1.6 ± 0.12
GUAGAGCAAUAUUACGUUAA | -2 ± 0.17 | -0.228 ± 0.21
GUAUAGCAAUAUUACGACCU | -1.21 ± 0.18 | -0.345 ± 0.18
GUAUAGCAAUAUUACGACGA | -1.78 ± 0.24 | -0.483 ± 0.19
GUAUAGCAAUAUUACGAGUC | -3.65 ± 0.38 | -0.711 ± 0.19
GUAUAGCAAUAUUACGAUCA | -1.33 ± 0.2 | -0.768 ± 0.16
GUAUAGCAAUAUUACGAUGC | -2.65 ± 0.2 | -2.55 ± 0.24
GUAUAGCAAUAUUACGCAAU | -1.98 ± 0.22 | -2.85 ± 0.4
GUAUAGCAAUAUUACGCCAU | -2.96 ± 0.32 | -1.6 ± 0.22
GUAUAGCAAUAUUACGCCGU | -2.69 ± 0.23 | -0.947 ± 0.19
GUAUAGCAAUAUUACGCUCG | -0.631 ± 0.15 | -0.0296 ± 0.19
GUAUAGCAAUAUUACGCUUA | -2.39 ± 0.17 | -1.23 ± 0.2
GUAUAGCAAUAUUACGGAUG | -2.65 ± 0.39 | -1.99 ± 0.25
GUAUAGCAAUAUUACGGAUU | -2.58 ± 0.14 | -0.56 ± 0.13
GUAUAGCAAUAUUACGGCGG |  | -2.1 ± 0.38
GUAUAGCAAUAUUACGGGGC |  | -1.61 ± 0.37
GUAUAGCAAUAUUACGGUCU | -1.47 ± 0.11 | -0.548 ± 0.16
GUAUAGCAAUAUUACGUAUA | -3.48 ± 0.41 | -1.8 ± 0.25
GUAUAGCAAUAUUACGUCCU | -1.56 ± 0.15 | -0.00945 ± 0.19
GUAUAGCAAUAUUACGUGAC | -2.65 ± 0.13 | -1.65 ± 0.14
GUAUAGCAAUAUUACGUGCG | -1.4 ± 0.12 | -0.66 ± 0.15
GUCAAGCAAUAUUACGAGAC | -3.46 ± 0.19 | -3.84 ± 0.26
GUCAAGCAAUAUUACGAUUU | -0.962 ± 0.08 | -1.42 ± 0.11
GUCAAGCAAUAUUACGCAAA | -1.99 ± 0.15 | -1.46 ± 0.16
GUCAAGCAAUAUUACGCACG | -1.96 ± 0.13 | -1.49 ± 0.19

Sequence | self-splicing fitness (ln) (30 °C) | self-splicing fitness (ln) (37 °C)
GUCAAGCAAUAUUACGCAUG | -4.62 ± 0.34 | -2.33 ± 0.17
GUCAAGCAAUAUUACGCGCC | -4.2 ± 0.3 | -1.95 ± 0.23
GUCAAGCAAUAUUACGCUCC | -1.87 ± 0.28 | -1.62 ± 0.29
GUCAAGCAAUAUUACGGAAU | -2.07 ± 0.12 | -1.09 ± 0.12
GUCAAGCAAUAUUACGGACA | -3.06 ± 0.39 | -2.09 ± 0.19
GUCAAGCAAUAUUACGGCAU | -1.55 ± 0.083 | -0.119 ± 0.1
GUCAAGCAAUAUUACGGUUA | -2.2 ± 0.14 | -0.972 ± 0.1
GUCAAGCAAUAUUACGUAGU | -1.21 ± 0.068 | -0.468 ± 0.1
GUCAAGCAAUAUUACGUAUA | -2.31 ± 0.13 | -0.798 ± 0.14
GUCAAGCAAUAUUACGUCAU | -2.22 ± 0.075 | -1.16 ± 0.064
GUCAAGCAAUAUUACGUGAC | -5.1 ± 0.39 | -4.13 ± 0.32
GUCAAGCAAUAUUACGUGAG | -1.2 ± 0.054 | -0.505 ± 0.067
GUCAAGCAAUAUUACGUUAA | -2.02 ± 0.12 | -1.74 ± 0.1
GUCAAGCAAUAUUACGUUAU | -2.02 ± 0.088 | -1.15 ± 0.09
GUCCAGCAAUAUUACGAAGA | -0.611 ± 0.19 | -1.51 ± 0.24
GUCCAGCAAUAUUACGAUCG | -1.8 ± 0.14 | -1.54 ± 0.14
GUCCAGCAAUAUUACGAUCU | -2.44 ± 0.16 | -0.0861 ± 0.12
GUCCAGCAAUAUUACGCAGG | -4.01 ± 0.18 | -3.72 ± 0.24
GUCCAGCAAUAUUACGCCAG | -3.38 ± 0.23 | -1.15 ± 0.2
GUCCAGCAAUAUUACGCCGU | -1.29 ± 0.13 | -0.122 ± 0.13
GUCCAGCAAUAUUACGCGGG | -4.23 ± 0.26 | -2.92 ± 0.24
GUCCAGCAAUAUUACGCGUC | -1.15 ± 0.088 | 0.346 ± 0.12
GUCCAGCAAUAUUACGCUAA | -0.5 ± 0.11 | 0.303 ± 0.11
GUCCAGCAAUAUUACGCUCA | -0.307 ± 0.092 | -0.112 ± 0.11
GUCCAGCAAUAUUACGCUGA | -0.534 ± 0.092 | -0.466 ± 0.13

Sequence | self-splicing fitness (ln) (30 °C) | self-splicing fitness (ln) (37 °C)
GUCCAGCAAUAUUACGGAUG | -0.272 ± 0.077 | 0.023 ± 0.1
GUCCAGCAAUAUUACGGCAA | -0.33 ± 0.097 | -0.363 ± 0.085
GUCCAGCAAUAUUACGGCUC | -0.432 ± 0.077 | 0.909 ± 0.12
GUCCAGCAAUAUUACGGGAA | -0.0663 ± 0.071 | -0.474 ± 0.077
GUCCAGCAAUAUUACGGGAU | -4.04 ± 0.2 | -2.76 ± 0.22
GUCCAGCAAUAUUACGUACU | -2.47 ± 0.14 | -1.53 ± 0.14
GUCCAGCAAUAUUACGUCAU | -0.201 ± 0.077 | 0.269 ± 0.081
GUCCAGCAAUAUUACGUGUC | -0.424 ± 0.057 | 0.0485 ± 0.068
GUCCAGCAAUAUUACGUUCC | -1.46 ± 0.083 | -0.198 ± 0.1
GUCGAGCAAUAUUACGAACG |  | -1.02 ± 0.23
GUCGAGCAAUAUUACGCACG | -1 ± 0.28 | 
GUCGAGCAAUAUUACGCGGU |  | -1.94 ± 0.32
GUCGAGCAAUAUUACGGGAG | -3.67 ± 0.21 | -2.4 ± 0.2
GUCGAGCAAUAUUACGUCCA | -2.21 ± 0.22 | -2.53 ± 0.26
GUCGAGCAAUAUUACGUGGA |  | -2.46 ± 0.26
GUCGAGCAAUAUUACGUGGG | -2.55 ± 0.21 | -0.374 ± 0.14
GUCUAGCAAUAUUACGACAA | -2.6 ± 0.23 | -1.56 ± 0.26
GUCUAGCAAUAUUACGACCA | -0.99 ± 0.26 | -2.1 ± 0.29
GUCUAGCAAUAUUACGACCU | -2.33 ± 0.21 | -1.21 ± 0.17
GUCUAGCAAUAUUACGACGA | -1.86 ± 0.18 | -0.293 ± 0.16
GUCUAGCAAUAUUACGAGUU | -2.13 ± 0.12 | -1.32 ± 0.1
GUCUAGCAAUAUUACGAUCG | -3.06 ± 0.17 | -1.09 ± 0.16
GUCUAGCAAUAUUACGAUUU | -0.743 ± 0.056 | 0.36 ± 0.064
GUCUAGCAAUAUUACGCAGG | -3.11 ± 0.3 | -3.31 ± 0.37
GUCUAGCAAUAUUACGCAUA | -1.08 ± 0.14 | -0.121 ± 0.12

Sequence | self-splicing fitness (ln) (30 °C) | self-splicing fitness (ln) (37 °C)
GUCUAGCAAUAUUACGCAUU | 0.0861 ± 0.1 | 0.379 ± 0.092
GUCUAGCAAUAUUACGCCCC | 0.281 ± 0.13 | -0.182 ± 0.12
GUCUAGCAAUAUUACGCCCU | -0.702 ± 0.36 | -0.472 ± 0.37
GUCUAGCAAUAUUACGCCUU | -0.385 ± 0.16 | 0.266 ± 0.15
GUCUAGCAAUAUUACGCGAG | -1.08 ± 0.13 | 0.182 ± 0.13
GUCUAGCAAUAUUACGCGUA | -0.384 ± 0.081 | 0.391 ± 0.09
GUCUAGCAAUAUUACGGGGC |  | -2.34 ± 0.36
GUCUAGCAAUAUUACGUACC | -0.591 ± 0.29 | -0.721 ± 0.3
GUCUAGCAAUAUUACGUCGG | -3.43 ± 0.2 | -2.51 ± 0.2
GUCUAGCAAUAUUACGUGUU | -1.61 ± 0.092 | -0.352 ± 0.093
GUCUAGCAAUAUUACGUUAU | -0.954 ± 0.061 | -0.704 ± 0.055
GUCUAGCAAUAUUACGUUUA | -0.64 ± 0.12 | -1 ± 0.1
GUGAAGCAAUAUUACGAAGU | -0.832 ± 0.14 | -1.05 ± 0.16
GUGAAGCAAUAUUACGACUC | 0.243 ± 0.26 | -0.398 ± 0.28
GUGAAGCAAUAUUACGAUAA | -0.524 ± 0.15 | 0.6 ± 0.15
GUGAAGCAAUAUUACGAUAU | -0.274 ± 0.044 | -0.103 ± 0.058
GUGAAGCAAUAUUACGAUUC | -0.545 ± 0.098 | 0.0735 ± 0.17
GUGAAGCAAUAUUACGCACC |  | -1.92 ± 0.34
GUGAAGCAAUAUUACGCAUC |  | -1.69 ± 0.49
GUGAAGCAAUAUUACGCCCU | -0.176 ± 0.13 | 0.602 ± 0.15
GUGAAGCAAUAUUACGCUCG | -1.69 ± 0.11 | -0.267 ± 0.13
GUGAAGCAAUAUUACGGCAC | -0.747 ± 0.16 | -0.289 ± 0.33
GUGAAGCAAUAUUACGGCAU | 0.0954 ± 0.083 | 0.334 ± 0.089
